Article PMC2613223 (International journal of cancer. Journal international du …, 2008)

Biological target: DNA-dependent protein kinase catalytic subunit (human (endogenous in HCT-116), UniProt P78527 1-4128)
Experiment: cell-based or functional assay

Sequence of DNA-dependent protein kinase catalytic subunit (P78527 whole entry): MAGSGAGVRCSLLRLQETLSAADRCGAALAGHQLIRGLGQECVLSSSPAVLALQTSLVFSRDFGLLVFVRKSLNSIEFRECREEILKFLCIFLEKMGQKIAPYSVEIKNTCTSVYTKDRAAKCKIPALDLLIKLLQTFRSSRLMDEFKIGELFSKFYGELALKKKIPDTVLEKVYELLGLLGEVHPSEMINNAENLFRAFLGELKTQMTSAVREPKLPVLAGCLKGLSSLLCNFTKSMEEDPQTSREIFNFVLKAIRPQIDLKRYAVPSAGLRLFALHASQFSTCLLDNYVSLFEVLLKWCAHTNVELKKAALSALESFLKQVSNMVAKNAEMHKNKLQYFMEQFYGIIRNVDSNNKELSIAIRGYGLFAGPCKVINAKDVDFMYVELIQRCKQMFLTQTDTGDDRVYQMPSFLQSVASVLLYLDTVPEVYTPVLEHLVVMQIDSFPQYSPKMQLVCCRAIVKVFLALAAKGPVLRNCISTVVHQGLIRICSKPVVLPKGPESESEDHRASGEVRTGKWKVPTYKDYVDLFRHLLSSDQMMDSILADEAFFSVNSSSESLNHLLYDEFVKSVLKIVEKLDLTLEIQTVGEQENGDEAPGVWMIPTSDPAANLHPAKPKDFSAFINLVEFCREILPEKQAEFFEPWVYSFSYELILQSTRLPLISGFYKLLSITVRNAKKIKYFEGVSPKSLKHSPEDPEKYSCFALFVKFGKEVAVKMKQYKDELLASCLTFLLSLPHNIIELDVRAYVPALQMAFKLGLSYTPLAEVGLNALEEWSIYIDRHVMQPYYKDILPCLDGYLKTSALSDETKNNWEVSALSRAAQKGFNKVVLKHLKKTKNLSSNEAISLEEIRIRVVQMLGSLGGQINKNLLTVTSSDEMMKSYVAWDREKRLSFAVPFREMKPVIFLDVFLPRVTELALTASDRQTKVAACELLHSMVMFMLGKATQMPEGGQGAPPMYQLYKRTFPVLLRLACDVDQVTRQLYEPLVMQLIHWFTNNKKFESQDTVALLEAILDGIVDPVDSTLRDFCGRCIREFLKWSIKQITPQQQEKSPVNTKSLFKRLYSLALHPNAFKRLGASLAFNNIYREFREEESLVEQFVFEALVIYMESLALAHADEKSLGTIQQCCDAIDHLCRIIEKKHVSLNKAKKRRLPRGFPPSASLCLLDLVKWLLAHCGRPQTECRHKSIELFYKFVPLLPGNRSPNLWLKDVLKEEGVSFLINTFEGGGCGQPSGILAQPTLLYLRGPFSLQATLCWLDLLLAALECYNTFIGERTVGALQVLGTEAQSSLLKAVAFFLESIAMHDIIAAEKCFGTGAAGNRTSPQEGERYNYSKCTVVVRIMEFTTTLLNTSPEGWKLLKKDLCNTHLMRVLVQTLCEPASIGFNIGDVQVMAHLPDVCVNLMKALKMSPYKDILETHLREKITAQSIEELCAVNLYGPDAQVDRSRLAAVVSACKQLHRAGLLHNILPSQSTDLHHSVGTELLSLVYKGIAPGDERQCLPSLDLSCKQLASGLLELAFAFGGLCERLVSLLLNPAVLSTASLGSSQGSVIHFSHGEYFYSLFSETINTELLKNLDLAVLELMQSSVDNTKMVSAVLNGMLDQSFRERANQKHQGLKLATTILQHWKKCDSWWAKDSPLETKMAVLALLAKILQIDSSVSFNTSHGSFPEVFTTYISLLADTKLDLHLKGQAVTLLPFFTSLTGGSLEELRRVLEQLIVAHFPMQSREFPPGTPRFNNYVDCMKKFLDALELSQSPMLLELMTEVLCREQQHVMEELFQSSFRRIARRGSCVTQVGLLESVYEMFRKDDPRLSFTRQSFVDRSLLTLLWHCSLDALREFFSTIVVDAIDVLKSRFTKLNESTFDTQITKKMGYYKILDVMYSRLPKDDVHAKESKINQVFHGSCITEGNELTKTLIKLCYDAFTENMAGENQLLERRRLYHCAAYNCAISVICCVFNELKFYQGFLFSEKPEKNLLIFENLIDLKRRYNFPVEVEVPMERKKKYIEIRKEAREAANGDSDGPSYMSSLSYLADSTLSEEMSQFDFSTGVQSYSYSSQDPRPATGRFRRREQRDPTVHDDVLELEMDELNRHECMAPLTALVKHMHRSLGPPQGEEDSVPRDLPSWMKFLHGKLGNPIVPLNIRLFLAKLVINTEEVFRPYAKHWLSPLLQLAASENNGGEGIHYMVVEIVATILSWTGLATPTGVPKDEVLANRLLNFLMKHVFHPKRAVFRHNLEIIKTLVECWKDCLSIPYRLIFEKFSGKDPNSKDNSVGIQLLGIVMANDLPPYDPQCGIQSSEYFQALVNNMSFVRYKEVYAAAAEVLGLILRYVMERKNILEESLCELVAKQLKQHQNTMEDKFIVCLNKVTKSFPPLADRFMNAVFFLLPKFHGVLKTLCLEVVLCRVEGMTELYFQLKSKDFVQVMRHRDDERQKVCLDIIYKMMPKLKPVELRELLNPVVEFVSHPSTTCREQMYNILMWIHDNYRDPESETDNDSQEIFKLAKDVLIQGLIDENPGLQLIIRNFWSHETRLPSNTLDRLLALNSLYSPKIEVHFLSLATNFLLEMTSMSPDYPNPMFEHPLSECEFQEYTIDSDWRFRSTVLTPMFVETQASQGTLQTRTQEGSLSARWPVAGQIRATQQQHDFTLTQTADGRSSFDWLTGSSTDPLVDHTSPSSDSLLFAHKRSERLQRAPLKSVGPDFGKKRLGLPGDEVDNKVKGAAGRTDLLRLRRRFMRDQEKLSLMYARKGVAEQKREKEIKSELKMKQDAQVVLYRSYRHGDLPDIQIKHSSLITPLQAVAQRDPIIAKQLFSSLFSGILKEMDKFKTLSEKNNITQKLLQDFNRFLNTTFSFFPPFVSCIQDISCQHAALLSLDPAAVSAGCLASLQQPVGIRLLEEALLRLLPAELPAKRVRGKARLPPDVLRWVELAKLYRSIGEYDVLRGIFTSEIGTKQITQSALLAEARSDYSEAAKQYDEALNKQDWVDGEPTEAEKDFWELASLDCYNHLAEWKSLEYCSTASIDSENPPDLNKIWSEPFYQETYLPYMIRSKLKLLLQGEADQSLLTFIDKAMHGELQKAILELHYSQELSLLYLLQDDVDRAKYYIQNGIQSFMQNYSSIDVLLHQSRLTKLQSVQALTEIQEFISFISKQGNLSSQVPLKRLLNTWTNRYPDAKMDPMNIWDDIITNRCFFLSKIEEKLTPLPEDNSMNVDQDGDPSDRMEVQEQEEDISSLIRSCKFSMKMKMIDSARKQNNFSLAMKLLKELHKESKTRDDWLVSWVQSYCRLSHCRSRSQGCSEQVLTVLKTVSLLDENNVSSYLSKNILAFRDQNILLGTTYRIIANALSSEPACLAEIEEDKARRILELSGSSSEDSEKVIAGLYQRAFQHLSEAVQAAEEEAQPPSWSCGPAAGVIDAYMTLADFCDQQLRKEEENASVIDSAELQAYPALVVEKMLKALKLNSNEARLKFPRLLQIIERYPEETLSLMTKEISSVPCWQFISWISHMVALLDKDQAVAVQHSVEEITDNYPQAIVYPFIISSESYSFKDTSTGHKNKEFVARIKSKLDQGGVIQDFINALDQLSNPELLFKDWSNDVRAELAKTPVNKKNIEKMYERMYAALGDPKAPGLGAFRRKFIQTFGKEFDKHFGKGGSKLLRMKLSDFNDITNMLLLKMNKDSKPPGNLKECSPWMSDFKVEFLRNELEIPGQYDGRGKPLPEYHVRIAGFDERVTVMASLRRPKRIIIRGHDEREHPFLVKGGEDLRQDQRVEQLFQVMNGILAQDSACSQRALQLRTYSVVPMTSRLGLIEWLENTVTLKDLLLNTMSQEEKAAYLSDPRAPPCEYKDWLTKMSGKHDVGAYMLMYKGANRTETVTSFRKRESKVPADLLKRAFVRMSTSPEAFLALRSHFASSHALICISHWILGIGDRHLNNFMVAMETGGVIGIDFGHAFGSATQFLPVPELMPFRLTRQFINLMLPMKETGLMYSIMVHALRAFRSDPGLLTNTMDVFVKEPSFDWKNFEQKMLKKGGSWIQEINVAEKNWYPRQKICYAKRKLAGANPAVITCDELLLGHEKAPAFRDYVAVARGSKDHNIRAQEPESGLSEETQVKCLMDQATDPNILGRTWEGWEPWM

B1: 15-lipoxygenase-1 (enzyme, human, UniProt P16050 1-662, looked up)
chain: MGLYRIRVSTGASLYAGSNNQVQLWLVGQHGEAALGKRLWPARGKETELKVEVPEYLGPLLFVKLRKRHLLKDDAWFCNWISVQGPGAGDEVRFPCYRWVEGNGVLSLPEGTGRTVGEDPQGLFQKHREEELEERRKLYRWGNWKDGLILNMAGAKLYDLPVDERFLEDKRVDFEVSLAKGLADLAIKDSLNVLTCWKDLDDFNRIFWCGQSKLAERVRDSWKEDALFGYQFLNGANPVVLRRSAHLPARLVFPPGMEELQAQLEKELEGGTLFEADFSLLDGIKANVILCSQQHLAAPLVMLKLQPDGKLLPMVIQLQLPRTGSPPPPLFLPTDPPMAWLLAKCWVRSSDFQLHELQSHLLRGHLMAEVIVVATMRCLPSIHPIFKLIIPHLRYTLEINVRARTGLVSDMGIFDQIMSTGGGGHVQLLKQAGAFLTYSSFCPPDDLADRGLLGVKSSFYAQDALRLWEIIYRYVEGIVSLHYKTDVAVKDDPELQTWCREITEIGLQGAQDRGFPVSLQARDQVCHFVTMCIFTCTGQHASVHLGQLDWYSWVPNAPCTMRLPPPTTKDATLETVMATLPNFHQASLQMSITWQLGRRQPVMVAVGQHEEEYFSGPEPKAVLKKFREELAALDKEIEIRNAKLDMPYEYLRPSVVENSVAI
- DNA-PK kinase activity in 15-LOX-1 expressing whole cell extract lysates: 1.6 fold
